Laboratory results from patent US20260055369A1 (H LEE MOFFITT CANCER CENTER AND RESEARCH INSTITUTE, published 2026).

Legend:
[1] = target: T1, hNotch2 (EGF6-13, residues 221-530), biotinylated (human, UniProt Q04721 221-530, Biotinylated in vitro by BirA at the C-terminal BAP-tag (tag not in the letters).); assay: SPR, KD of Delta^MAX against KD of WT DLL4
T1 construct: Immobilised on a streptavidin chip for SPR
T1 sequence: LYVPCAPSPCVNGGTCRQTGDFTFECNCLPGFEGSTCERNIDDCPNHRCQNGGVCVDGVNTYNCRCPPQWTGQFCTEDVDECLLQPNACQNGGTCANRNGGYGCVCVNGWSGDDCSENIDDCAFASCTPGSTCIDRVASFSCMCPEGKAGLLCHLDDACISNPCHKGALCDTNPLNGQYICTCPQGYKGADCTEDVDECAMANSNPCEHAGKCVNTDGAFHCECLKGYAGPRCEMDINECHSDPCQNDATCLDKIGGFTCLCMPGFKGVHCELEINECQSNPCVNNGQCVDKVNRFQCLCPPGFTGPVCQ
Protocol: Surface plasmon resonance (SPR) was used to determine the binding affinity between Delta^MAX and the ligand-binding regions of Notch1-4. As a basis for comparison, a WT DLL4 construct, a DLL4.v2 construct, and a “DLL4.v1” construct containing the five E12 mutations (G28S, F107L, N118I, H194Y, and L206P) were also generated (FIG. 2A, 10). […] The rapid dissociation of WT DLL4 precluded kinetic fitting of the binding data.
Equilibrium dissociation constants were determined by surface plasmon resonance using a Biacore T200 instrument (GE Healthcare). Approximately 100 resonance units (RU) of biotinylated Notch extracellular fragments (Notch1 (EGF6-13), Notch2 (EGF6-13), Notch3 (EGF5-12), Notch4 (7-12), and mouse Notch1 (EGF6-13)) were immobilized on individual flow cells at 5 μl/min using a streptavidin-coated sensor chip (Series S Sensor chip SA, GE Healthcare). Three-fold serial dilutions of recombinant DLL4 proteins (N-EGF5) starting at 50 μM (WT DLL4), 18 μM (DLL4.v2), and 6 μM (DLL4.v1 and Delta^MAX) were flowed over the chip at 25° C. in SPR buffer (20 mM HEPES pH 7.4, 150 mM NaCl, 1 mM calcium chloride, 0.1% BSA supplemented with 0.005% surfactant P20). Association (“on-rate”) and dissociation (“off-rate”) phases were performed at 10 μl/min for 120 seconds and 300 seconds, respectively. […] Data collection rate was performed at 10 Hz, and curves were reference-subtracted from a flow cell containing 100 RU of a negative control non-related protein (biotinylated mouse RNF43 PA domain).

[2] = target: T2, mouse Notch1 (EGF6-13, residues 221-526), biotinylated (mouse, UniProt Q01705 221-526, Biotinylated in vitro by BirA at the C-terminal BAP-tag (tag not in the letters).); assay: SPR steady-state binding isotherm, biotinylated mNotch1 (EGF6-13) on a streptavidin chip, DLL4 variant as analyte, response normalized to the maximum (100%)
T2 construct: Immobilised on a streptavidin chip for SPR; also called mNotch1 EGF6-13; mNotch1 (6-13)
T2 sequence: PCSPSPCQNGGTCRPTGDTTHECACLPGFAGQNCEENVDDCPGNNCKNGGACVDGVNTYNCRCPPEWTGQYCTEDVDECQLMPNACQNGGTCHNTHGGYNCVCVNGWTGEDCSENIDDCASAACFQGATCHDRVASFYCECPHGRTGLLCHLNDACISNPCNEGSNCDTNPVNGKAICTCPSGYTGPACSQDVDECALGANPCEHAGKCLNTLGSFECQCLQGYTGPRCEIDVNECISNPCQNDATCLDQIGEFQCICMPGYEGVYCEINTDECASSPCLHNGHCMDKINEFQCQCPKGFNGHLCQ
Source text: Extended Data FIG. 5. Quantitation of mNotch1 binding to DLL4 variants, ligand adsorption, and Notch surface expression. a, SPR binding isotherms were fitted to a 1:1 binding model to determine the binding affinity between mNotch1 (6-13) and each DLL4 variant. b, Determination of plate adsorption for WT DLL4 and Delta^MAX by ELISA. Data represent mean values±s.d. of three biological replicates. c, Binding assay of WT DLL4 and Delta^MAX tetramers to Notch1 overexpressing CHO-K1 N1-Gal4 cells was measured by flow cytometry. Data represent mean values±s.d. of three biological replicates. d, The level of Notch1 expression on the surface of cell lines used in this study was determined by flow cytometry. Data represent mean values±s.d. of three biological replicates. e, Percentage of CD8⁺ T cells expressing Notch1 (upper graph) and Notch2 (bottom graph) on cell surface determined by flow cytometry after stimulation with K32-WT DLL4, K32-Delta^MAX, or K32 for 96 hours. Data represent mean values±s.e.m. of three biological replicates. Delta^MAX statistics are referred to WT DLL4. *P<0.05, ****P<0.0001 (Two-way ANOVA).
Equilibrium dissociation constants were determined by surface plasmon resonance using a Biacore T200 instrument (GE Healthcare). […]

B1: Delta^MAX (N-EGF5), non-biotinylated (ligand)
chain: SSVFQLQLQEFINERGVLASGRPCEPGCRTFFRVCLKHFQAVVSPGPCTFGTVSTPVLGTNSFAVRDDSSGGGRNPLQLPLNFTWPGTFSLIIEAWHAPGDDLRPEALPPDALISKFAIQGSLAVGQNWLLDEQTSTLTRLRYSYRVICSDNYYGDNCSRLCKKRNDYFGHYVCQPDGNPSCLPGWTGEYCQQPICLSGCHEQNGYCSKPAECLCRPGWQGRLCNECIPHPGCRHGTCSTPWQCLCDEGWGGLYCDQDLNYCTHHSPCKNGATCRNSGPRSYTCTCRPGYTGVDCELELSECDSNPCRNGGSCKDQEDGYHCLCPPGYYGLHCEHSTLSCADSPCFNGGSCRERNQGANYACECPPNFTGSNCEHHHHHHHH
notes: also called DLL4^MAX; soluble Delta^MAX
fold enhancement of affinity compared to WT DLL4 [1]: 670 fold
EC50 (read off the curve) [2]: ~20 nM
